# Test results reported in paper doi:10.1101/2021.07.15.452591 (bioRxiv, 2021).
# B1: 2-aminomuconic 6-semialdehyde dehydrogenase (AmnC), wild type (enzyme, Pseudomonas sp. AP-3, UniProt Q9KWS5 1-491, looked up)
# chain: MKQYRNFVDGKWVESSKTFQDVTPIDGSVVAVVHEADRDLVDAAVKAGHRALEGEWGRTTAAQRVDWLRRIANEMERRQQDFLDAEMADTGKPLSMAATIDIPRGIANFRNFADILATAPVDSHRLDLPDGAYALNYAARKPLGVVGVISPWNLPLLLLTWKVAPALACGNAVVVKPSEDTPGTATLLAEVMEAVGIPPGVFNLVHGFGPNSAGEFISQHPDISAITFTGESKTGSTIMRAAAEGVKPVSFELGGKNAAVIFADCDFEKMLDGMMRALFLNSGQVCLCSERVYVERPIFDRFCVALAERIKALKVDWPHETDTQMGPLISSKHRDKVLSYFELARQEGATFLAGGGVPRFGDERDNGAWVEPTVIAGLSDDARVVREEIFGPICHVTPFDSESEVIRRANDTRYGLAATIWTTNLSRAHRVSELMRVGISWVNTWFLRDLRTPFGGAGLSGIGREGGMHSLNFYSELTNVCVRIDKESPDV
# B2: AmnC ΔOD1 (Δ124-138 and Δ477-491) (enzyme, Pseudomonas sp. AP-3, UniProt Q9KWS5 1-476, looked up)
# chain: MKQYRNFVDGKWVESSKTFQDVTPIDGSVVAVVHEADRDLVDAAVKAGHRALEGEWGRTTAAQRVDWLRRIANEMERRQQDFLDAEMADTGKPLSMAATIDIPRGIANFRNFADILATAPVDSARKPLGVVGVISPWNLPLLLLTWKVAPALACGNAVVVKPSEDTPGTATLLAEVMEAVGIPPGVFNLVHGFGPNSAGEFISQHPDISAITFTGESKTGSTIMRAAAEGVKPVSFELGGKNAAVIFADCDFEKMLDGMMRALFLNSGQVCLCSERVYVERPIFDRFCVALAERIKALKVDWPHETDTQMGPLISSKHRDKVLSYFELARQEGATFLAGGGVPRFGDERDNGAWVEPTVIAGLSDDARVVREEIFGPICHVTPFDSESEVIRRANDTRYGLAATIWTTNLSRAHRVSELMRVGISWVNTWFLRDLRTPFGGAGLSGIGREGGMHSLNFYSE
# B3: AmnC ΔOD2 (S123G, H124G, L425A) (enzyme, Pseudomonas sp. AP-3, UniProt Q9KWS5 1-491, looked up)
# chain: MKQYRNFVDGKWVESSKTFQDVTPIDGSVVAVVHEADRDLVDAAVKAGHRALEGEWGRTTAAQRVDWLRRIANEMERRQQDFLDAEMADTGKPLSMAATIDIPRGIANFRNFADILATAPVDGGRLDLPDGAYALNYAARKPLGVVGVISPWNLPLLLLTWKVAPALACGNAVVVKPSEDTPGTATLLAEVMEAVGIPPGVFNLVHGFGPNSAGEFISQHPDISAITFTGESKTGSTIMRAAAEGVKPVSFELGGKNAAVIFADCDFEKMLDGMMRALFLNSGQVCLCSERVYVERPIFDRFCVALAERIKALKVDWPHETDTQMGPLISSKHRDKVLSYFELARQEGATFLAGGGVPRFGDERDNGAWVEPTVIAGLSDDARVVREEIFGPICHVTPFDSESEVIRRANDTRYGLAATIWTTNASRAHRVSELMRVGISWVNTWFLRDLRTPFGGAGLSGIGREGGMHSLNFYSELTNVCVRIDKESPDV
# How the values were obtained:
# crystal structure = target: the molecule itself; assay: crystal structure
# SEC = target: the molecule itself; assay: SEC
# dynamic light scattering = target: the molecule itself; assay: dynamic light scattering
Protein,stoichiometry N (crystal structure),stoichiometry N (SEC),stoichiometry N (dynamic light scattering)
B1,4,,
B2,,~2,2
B3,,~2,2
